Experimental data from patent US20140212888A1 (published 2014).

Columns and labels:
Experiment in all cases: multimer staining
[1] = target: T1, WT1 (mutant WT1 peptide: second methionine of the wildtype peptide substituted with tyrosine) peptide on … (human)
T1 peptide: CYTWNQMNL

[2] = target: T2, WT1 (wildtype WT1 peptide) peptide on HLA-A*24:02 (human)
T2 peptide: CMTWNQMNL

[3] = target: T3, HIV (human immunodeficiency virus) envelope peptide on HLA-A*24:02 (human)
T3 peptide: RYLRDQQLL

B1: WT1 TCR A12-3/B5-1 (TCR, V domains shown)
Valpha: QKEVEQDPGPLSVPEGAIVSLNCTYSNSAFQYFMWYRQYSRKGPELLMYTYSSGNKEDGRFTAQVDKSSKYISLFIRDSQPSDSATYLCATSNAGGTSYGKLTFGQGTILTVHP
Vbeta: KAGVTQTPRYLIKTRGQQVTLSCSPISGHRSVSWYQQTPGQGLQFLFEYFSETQRNKGNFPGRFSGRQFSNSRSEMNVSTLELGDSALYLCASSYGERERKGETQYFGPGTRLLVL
[1]
  binding result: recognises
[2]
  binding result: recognises
[3]
  binding result: no recognition
